From patent US20160361434

How the values were obtained:
FY12Q10 = target: T1, FY12Q10
T1 chain: FPWSSPLKHQEY

GS12Q7 = target: T2, GS12Q7
T2 chain: GGSPLAQSHGGS

[1] = target: Bovine serum albumin, P02769
CF13Q4 = target: T3, CF13Q4
T3 chain: CYEQHKLPSSWPF

SY10Q8 = target: T4, SY10Q8
T4 chain: SPLKHQEY

[2] = target: BSA-HH12Q11 conjugate, P02769
DH6Q5 = target: T5, DH6Q5
T5 chain: DVYSQH

HH12Q11 = target: T6, HH12Q11
T6 chain: HDLMWPDVYSQH

CW8Q3 = target: T7, CW8Q3
T7 chain: CDQMMLPW

FE5Q4 = target: T8, FE5Q4
T8 chain: FWIQE

CS9Q4 = target: T9, CS9Q4
T9 chain: CYEQHKLPS

HH12N11 = target: T10, HH12N11
T10 chain: HDLMWPDVYSNH

TGpan = target: T11, TGpan
T11 chain: QG

DH6N5 = target: T12, DH6N5
T12 chain: DVYSNH

WG10Q7 = target: T13, WG10Q7
T13 chain: WPDVYSQHGG

YV10 = target: T14, YV10
T14 chain: YLADTNSLAV

HG14Q11 = target: T15, HG14Q11
T15 chain: HDLMWPDVYSQHGG

Chain of Bovine serum albumin, P02769 (P02769 25-607): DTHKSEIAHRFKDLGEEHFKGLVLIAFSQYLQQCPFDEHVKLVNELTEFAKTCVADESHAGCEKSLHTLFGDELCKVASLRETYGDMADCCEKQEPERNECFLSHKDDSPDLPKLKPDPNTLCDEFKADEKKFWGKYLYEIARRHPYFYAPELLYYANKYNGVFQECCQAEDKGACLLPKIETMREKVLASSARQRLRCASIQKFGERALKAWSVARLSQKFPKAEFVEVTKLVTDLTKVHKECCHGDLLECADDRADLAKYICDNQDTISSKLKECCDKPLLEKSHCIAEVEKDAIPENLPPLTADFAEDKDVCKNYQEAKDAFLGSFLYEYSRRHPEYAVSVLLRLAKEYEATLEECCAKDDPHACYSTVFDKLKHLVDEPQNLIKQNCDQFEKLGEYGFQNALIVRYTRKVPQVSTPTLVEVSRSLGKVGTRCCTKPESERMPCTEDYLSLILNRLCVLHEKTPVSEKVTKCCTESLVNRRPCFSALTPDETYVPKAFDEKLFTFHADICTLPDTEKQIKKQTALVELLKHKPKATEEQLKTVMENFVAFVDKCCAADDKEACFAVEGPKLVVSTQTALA
Chain of BSA-HH12Q11 conjugate, P02769 (P02769 25-607): as above

B1: Recombinant microbial transglutaminase (mTG) (protein)
chain: DSDDRVTPPAEPLDRMPDPYRPSYGRAETVVNNYIRKWQQVYSHRDGRKQQMTEEQREWLSYGCVGVTWVNSGQYPTNRLAFASFDEDRFKNELKNGRPRSGETRAEFEGRVAKESFDEEKGFQRAREVASVMNRALENAHDESAYLDNLKKELANGNDALRNEDARSPFYSALRNTPSFKERNGGNHDPSRMKAVIYSKHFWSGQDRSSSADKRKYGDPDAFRPAPGTGLVDMSRDRNIPRSPTSPGEGFVNFDYGWFGAQTEADADKTVWTHGNHYHAPNGSLGAMHVYESKFRNWSEGYSDFDRGAYVITFIPKSWNTAPDKVKQGWP
mTG-mediated incorporation of biotin-X-cadaverine into plate-coupled peptide (A450) (FY12Q10): The other peptides listed in table 1 didn't show any reactivity with mTG | mTG-mediated incorporation of biotin-X-cadaverine into plate-coupled peptide (A450) (GS12Q7): showed low reactivity to mTG in comparison with the other peptides | mTG incorporation of biot-cad into coated protein (A450) [1]: no reactivity with free BSA | mTG-mediated incorporation of biotin-X-cadaverine into plate-coupled peptide (A450) (CF13Q4): The other peptides listed in table 1 didn't show any reactivity with mTG | mTG-mediated incorporation of biotin-X-cadaverine into plate-coupled peptide (A450) (SY10Q8): The other peptides listed in table 1 didn't show any reactivity with mTG | mTG incorporation of biot-cad into coated conjugate (A450) [2]: a good incorporation of biot-cad was obtained with BSA-HH12Q11 conjugate | mTG-mediated incorporation of biotin-X-cadaverine into plate-coupled peptide (A450) (DH6Q5): Peptides FE5Q4, HH12Q11 and DH6Q7 were found to be good substrate for mTG | mTG-mediated incorporation of biotin-X-cadaverine into plate-coupled peptide (A450) (HH12Q11): found to be good substrate for mTG with better reactivity of the peptides FE5Q4 and HH12Q11 | mTG-mediated incorporation of biotin-X-cadaverine into plate-coupled peptide (A450) (CW8Q3): The other peptides listed in table 1 didn't show any reactivity with mTG | mTG-mediated incorporation of biotin-X-cadaverine into plate-coupled peptide (A450) (FE5Q4): found to be good substrate for mTG with better reactivity of the peptides FE5Q4 and HH12Q11 | mTG-mediated incorporation of biotin-X-cadaverine into plate-coupled peptide (A450) (CS9Q4): The other peptides listed in table 1 didn't show any reactivity with mTG | mTG-mediated incorporation of biotin-X-cadaverine into plate-coupled peptide (A450) (HH12N11): no reactivity of the mTG was observed | mTG-mediated incorporation of biotin-X-cadaverine into plate-coupled peptide (A450) (TGpan): showed low reactivity to mTG in comparison with the other peptides | mTG-mediated incorporation of biotin-X-cadaverine into plate-coupled peptide (A450) (DH6N5): The other peptides listed in table 1 didn't show any reactivity with mTG

B2: Recombinant human transglutaminase 2 (hTG2) (protein)
chain: MAEELVLERCDLELETNGRDHHTADLCREKLVVRRGQPFWLTLHFEGRNYEASVDSLTFSVVTGPAPSQEAGTKARFPLRDAVEEGDWTATVVDQQDCTLSLQLTTPANAPIGLYRLSLEASTGYQGSSFVLGHFILLFNAWCPADAVYLDSEEERQEYVLTQQGFIYQGSAKFIKNIPWNFGQFEDGILDICLILLDVNPKFLKNAGRDCSRRSSPVYVGRVVSGMVNCNDDQGVLLGRWDNNYGDGVSPMSWIGSVDILRRWKNHGCQRVKYGQCWVFAAVACTVLRCLGIPTRVVTNYNSAHDQNSNLLIEYFRNEFGEIQGDKSEMIWNFHCWVESWMTRPDLQPGYEGWQALDPTPQEKSEGTYCCGPVPVRAIKEGDLSTKYDAPFVFAEVNADVVDWIQQDDGSVHKSINRSLIVGLKISTKSVGRDEREDITHTYKYPEGSSEEREAFTRANHLNKLAEKEETGMAMRIRVGQSMNMGSDFDVFAHITNNTAEEYVCRLLLCARTVSYNGILGPECGTKYLLNLNLEPFSEKSVPLCILYEKYRDCLTESNLIKVRALLVEPVINSYLLAERDLYLENPEIKIRILGEPKQKRKLVAEVSLQNPLPVALEGCTFTVEGAGLTEEQKTVEIPDPVEAGEEVKVRMDLLPLHMGLHKLVVNFESDKLKAVKGFRNVIIGPA
TG2-mediated incorporation of biotin-cadaverine into plate-coupled peptide (A450) (FY12Q10): none of the other peptides react with the enzyme and cannot be used as substrate for TG2 | TG2-mediated incorporation of biotin-cadaverine into plate-coupled peptide (A450) (WG10Q7): none of the other peptides react with the enzyme and cannot be used as substrate for TG2 | TG2-mediated incorporation of biotin-cadaverine into plate-coupled peptide (A450) (GS12Q7): none of the other peptides react with the enzyme and cannot be used as substrate for TG2 | TG2-mediated incorporation of biotin-cadaverine into plate-coupled peptide (A450) (CF13Q4): none of the other peptides react with the enzyme and cannot be used as substrate for TG2 | TG2-mediated incorporation of biotin-cadaverine into plate-coupled peptide (A450) (SY10Q8): none of the other peptides react with the enzyme and cannot be used as substrate for TG2 | TG2-mediated incorporation of biotin-cadaverine into plate-coupled peptide (A450) (YV10): none of the other peptides react with the enzyme and cannot be used as substrate for TG2 | TG2-mediated incorporation of biotin-cadaverine into plate-coupled peptide (A450) (DH6Q5): none of the other peptides react with the enzyme and cannot be used as substrate for TG2 | TG2-mediated incorporation of biotin-cadaverine into plate-coupled peptide (A450) (HG14Q11): none of the other peptides react with the enzyme and cannot be used as substrate for TG2 | TG2-mediated incorporation of biotin-cadaverine into plate-coupled peptide (A450) (HH12Q11): HH12Q11 show less reactivity with TG2 than mTG | TG2-mediated incorporation of biotin-cadaverine into plate-coupled peptide (A450) (CW8Q3): none of the other peptides react with the enzyme and cannot be used as substrate for TG2 | TG2-mediated incorporation of biotin-cadaverine into plate-coupled peptide (A450) (FE5Q4): none of the other peptides react with the enzyme and cannot be used as substrate for TG2 | TG2-mediated incorporation of biotin-cadaverine into plate-coupled peptide (A450) (CS9Q4): none of the other peptides react with the enzyme and cannot be used as substrate for TG2 | TG2-mediated incorporation of biotin-cadaverine into plate-coupled peptide (A450) (HH12N11): none of the other peptides react with the enzyme and cannot be used as substrate for TG2 | TG2-mediated incorporation of biotin-cadaverine into plate-coupled peptide (A450) (TGpan): TGpan is good substrate for TG2 confirming its specificity to this enzyme | TG2-mediated incorporation of biotin-cadaverine into plate-coupled peptide (A450) (DH6N5): none of the other peptides react with the enzyme and cannot be used as substrate for TG2
